The record followed here is patent US7718385B2, “Bioactivation of alkylating agents for cancer treatment” (priority 2003, dated 2010).

Substrate in the data set: CC1=C(CO)C2=C(C)C3(CC3)[C@@](C)(O)C(=O)C2=C1
The data set is described as follows: purified protein, by the assay type. Conditions: other: formation of Product 8; 37.0 °C.

B1: recombinant rat AOR (Rattus norvegicus; Q160G/Q263G/Q264G/Q276G) (protein)
chain: MVQAKTWTLKKHFEGFPTDSNFELRTTELPPLNNGEVLLEALFLSVDPYMRVAAKKLKEGDSMMGEQVARVVESKNSAFPTGTIVVALLGWTSHSISDGNGLRKLPAEWPDKLPLSLALGTVGMPGLTAYFGLLDICGLKGGETVLVNAAAGAVGSVVGGIAKLKGCKVVGTAGSDEKVAYLKKLGFDVAFNYKTVKSLEEALRTASPDGYDCYFDNVGGEFSNTVILQMKTFGRIAICGAISQYNRTGPCPPGPSPEVIIYGGLRMEGFIVTRWGGEVRQKALTDLMNWVSEGKIRYHEYITEGFEKMPAAFMGMLKGDNLGKTIVKA
Take B1: the Km came out at 145 µM and the Vmax is 0.275 µmol/min/mg.
